According to the Immune Epitope Database (IEDB):

What was measured:
[1] = molecular target: HLA-B*27:03; assay: IEDB peptide-MHC binding, purified MHC/competitive/fluorescence; filed as Kd, often an IC50 or EC50 that approximates it; ≥ and ≤ were set here for values at or beyond the usual limits of such assays
[2] = molecular target: HLA-B*15:17; assay: as above
[3] = molecular target: HLA-B*57:01; assay: as above
[4] = molecular target: HLA-B*51:01; assay: as above
[5] = molecular target: HLA-B*46:01; assay: as above
[6] = molecular target: HLA-B*15:01; assay: as above; conditions: source organism: Zaire ebolavirus
[7] = molecular target: HLA-B*39:01; assay: as above
[8] = molecular target: HLA-B*18:01; assay: as above
[9] = molecular target: HLA-A*26:01; assay: as above
[10] = molecular target: HLA-A*69:01; assay: as above
[11] = molecular target: HLA-A*02:01; assay: as above
[12] = molecular target: HLA-A*23:01; assay: IEDB peptide-MHC binding, purified MHC/direct/fluorescence; filed as Kd, often an IC50 or EC50 that approximates it; ≥ and ≤ were set here for values at or beyond the usual limits of such assays
[13] = molecular target: HLA-A*02:11; assay: as above; conditions: source organism: Zaire ebolavirus
[14] = molecular target: HLA-A*03:01; assay: as above
[15] = molecular target: HLA-A*02:19; assay: as above
[16] = molecular target: HLA-A*68:02; assay: as above
[17] = molecular target: HLA-A*24:03; assay: as above
[18] = molecular target: HLA-A*29:02; assay: as above
[19] = molecular target: HLA-A*02:03; assay: as above
[20] = molecular target: HLA-A*02:16; assay: as above; conditions: source organism: Zaire ebolavirus
[21] = molecular target: HLA-A*02:12; assay: as above
[22] = molecular target: HLA-A*11:01; assay: as above
[23] = molecular target: HLA-A*23:01; assay: IEDB peptide-MHC binding, purified MHC/competitive/fluorescence; filed as Kd, often an IC50 or EC50 that approximates it; ≥ and ≤ were set here for values at or beyond the usual limits of such assays; conditions: source organism: Yersinia enterocolitica (type O:8)
[24] = molecular target: HLA-A*02:06; assay: as above
[25] = molecular target: HLA-B*08:02; assay: IEDB peptide-MHC binding, purified MHC/direct/fluorescence; filed as Kd, often an IC50 or EC50 that approximates it; ≥ and ≤ were set here for values at or beyond the usual limits of such assays
[26] = molecular target: HLA-B*58:01; assay: as above
[27] = molecular target: HLA-B*15:17; assay: as above
[28] = molecular target: HLA-A*01:01; assay: as above
[29] = molecular target: HLA-A*26:02; assay: as above
[30] = molecular target: HLA-B*57:01; assay: as above
[31] = molecular target: HLA-B*08:03; assay: as above
[32] = molecular target: HLA-A*31:01; assay: as above
[33] = molecular target: HLA-B*46:01; assay: as above
[34] = molecular target: HLA-B*48:01; assay: as above
[35] = molecular target: HLA-B*27:05; assay: as above
[36] = molecular target: HLA-B*15:01; assay: as above
[37] = molecular target: HLA-B*40:01; assay: as above; conditions: source organism: Vibrio parahaemolyticus
[38] = molecular target: HLA-B*08:01; assay: as above
[39] = molecular target: HLA-B*18:01; assay: as above; conditions: source organism: Vibrio parahaemolyticus
[40] = molecular target: HLA-B*07:02; assay: as above
[41] = molecular target: HLA-A*02:01; assay: as above
[42] = molecular target: HLA-B*40:01; assay: IEDB peptide-MHC binding, purified MHC/competitive/fluorescence; filed as Kd, often an IC50 or EC50 that approximates it; ≥ and ≤ were set here for values at or beyond the usual limits of such assays; conditions: source organism: Campylobacter jejuni subsp. jejuni BH-01-0142
[43] = molecular target: HLA-A*02:03; assay: as above; conditions: source organism: Campylobacter jejuni subsp. jejuni BH-01-0142
[44] = molecular target: HLA-A*26:01; assay: IEDB peptide-MHC binding, purified MHC/direct/fluorescence; filed as Kd, often an IC50 or EC50 that approximates it; ≥ and ≤ were set here for values at or beyond the usual limits of such assays; conditions: source organism: Campylobacter jejuni
[45] = source organism: Zaire ebolavirus
[46] = source organism: Giardia lamblia ATCC 50803
[47] = source organism: Vibrio parahaemolyticus RIMD 2210633
[48] = source organism: Vibrio parahaemolyticus
[49] = source organism: Campylobacter jejuni

With HLSGWELAK the Kd [1, 45] was ≥ 20 µM, the Kd [2, 45] was ≥ 20 µM and the Kd [3, 45] was ≥ 20 µM. For the same sequence, the Kd [4, 45] was ≥ 20 µM, the Kd [5, 45] was ≥ 20 µM and the Kd [6] was ≥ 20 µM. For the same sequence, the Kd [7, 45] was ≥ 20 µM, the Kd [8, 45] was ≥ 20 µM and the Kd [9, 45] was ≥ 20 µM. For the same sequence, the Kd [10, 45] was ≥ 20 µM, the Kd [11, 45] was ≥ 20 µM and the Kd [12, 45] was ≥ 20 µM. The Kd [13] was ≥ 20 µM, the Kd ([14]; source organism: Sudan ebolavirus - Maleo (1979)) was 0.148 µM and the Kd [15, 45] was ≥ 20 µM. The Kd [16, 45] was ≥ 20 µM, the Kd [17, 45] was ≥ 20 µM and the Kd [18, 45] was ≥ 20 µM. For the same sequence, the Kd [19, 45] was ≥ 20 µM, the Kd [20] was ≥ 20 µM and the Kd [21, 45] was ≥ 20 µM.
With RIYDPLWFQ the Kd [1, 46] was ≥ 20 µM, the Kd [2, 46] was ≥ 20 µM and the Kd [3, 46] was ≥ 20 µM. For the same sequence, the Kd [4, 46] was ≥ 20 µM, the Kd [5, 46] was ≥ 20 µM and the Kd [7, 46] was ≥ 20 µM. The Kd [8, 46] was ≥ 20 µM, the Kd [9, 46] was ≥ 20 µM and the Kd [10, 46] was ≥ 20 µM. The Kd [11, 46] was ≥ 20 µM, the Kd [12, 46] was ≥ 20 µM and the Kd [14, 46] was ≥ 20 µM. For the same sequence, the Kd [15, 46] was ≥ 20 µM, the Kd [22, 46] was 2.93 µM and the Kd [16, 46] was ≥ 20 µM. For the same sequence, the Kd [17, 46] was ≥ 20 µM, the Kd [18, 46] was ≥ 20 µM and the Kd [19, 46] was ≥ 20 µM. The Kd [21, 46] was ≥ 20 µM.
With TYQVYRYII the Kd [23] was ≤ 0.0001 µM.
With VFMDNAFKK the Kd [24, 47] was 0.291 µM, the Kd [25, 47] was ≥ 20 µM and the Kd [26, 48] was ≥ 20 µM. For the same sequence, the Kd [27, 48] was ≥ 20 µM, the Kd [28, 48] was ≥ 20 µM and the Kd [14, 48] was 1.38 µM. For the same sequence, the Kd [29, 47] was ≥ 20 µM, the Kd [30, 48] was ≥ 20 µM and the Kd [22, 48] was 0.131 µM. For the same sequence, the Kd [31, 47] was ≥ 20 µM, the Kd [32, 48] was 2.21 µM and the Kd [33, 48] was ≥ 20 µM. The Kd [16, 48] was ≥ 20 µM, the Kd [34, 48] was ≥ 20 µM and the Kd [35, 48] was ≥ 20 µM. The Kd [36, 48] was ≥ 20 µM, the Kd [37] was ≥ 20 µM and the Kd [38, 47] was ≥ 20 µM. The Kd [39] was ≥ 20 µM, the Kd [40, 48] was ≥ 20 µM and the Kd [41, 48] was ≥ 20 µM.
For VSIRGSHHK, the Kd ([24]; source organism: Campylobacter jejuni subsp. jejuni BH-01-0142) was 5.13 µM, the Kd [42] was 3.19 µM and the Kd [43] was 3.41 µM. For the same sequence, the Kd [25, 49] was ≥ 20 µM, the Kd [26, 49] was ≥ 20 µM and the Kd [27, 49] was ≥ 20 µM. For the same sequence, the Kd [28, 49] was ≥ 20 µM, the Kd [14, 49] was 0.145 µM and the Kd [29, 49] was ≥ 20 µM. The Kd [30, 49] was ≥ 20 µM, the Kd [22, 49] was 0.091 µM and the Kd [31, 49] was ≥ 20 µM. For the same sequence, the Kd [32, 49] was 4.88 µM, the Kd [33, 49] was ≥ 20 µM and the Kd [16, 49] was ≥ 20 µM. The Kd [34, 49] was ≥ 20 µM, the Kd [35, 49] was ≥ 20 µM and the Kd [36, 49] was ≥ 5 µM. For the same sequence, the Kd [38, 49] was ≥ 20 µM, the Kd [40, 49] was ≥ 20 µM and the Kd [44] was ≥ 20 µM. For the same sequence, the Kd [41, 49] was ≥ 20 µM.
